Paper PMC3776556, “Crystal structures of the CPAP/STIL complex reveal its role in centriole assembly and human microcephaly” (eLife, 2013)

Columns and labels:
[1] = target: T1, Danio rerio CPAP^937–1124 TCP domain, WT (Danio rerio, UniProt E7FCY1 937-1124); test: ITC; STIL peptide in syringe titrated into CPAP TCP domain in cell; 50 mM HEPES pH 7.5, 100 mM NaCl, 25°C; single set of binding sites model, N as a variable; CPAP typically 40 μM, STIL typically 700 μM; conditions: both partners purified
T1 construct: remnant of the cloning and protease cleavage sites at the N-terminus; also called TCP domain of D. rerio CPAP; G-box; source: E. coli BL21 (DE3) Rosetta, purified (NiNTA, proteolytic tag cleavage, optionally size exclusion, ion exchange); not shown: His tag, N-terminal, cleaved
T1 sequence: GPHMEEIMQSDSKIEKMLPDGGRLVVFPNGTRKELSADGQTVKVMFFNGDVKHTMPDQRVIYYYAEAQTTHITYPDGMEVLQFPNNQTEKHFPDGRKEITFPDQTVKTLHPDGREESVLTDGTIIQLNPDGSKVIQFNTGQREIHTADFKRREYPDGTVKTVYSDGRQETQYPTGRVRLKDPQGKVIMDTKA

[2] = target: T1, Danio rerio CPAP^937–1124 TCP domain, WT; test: crystal structure; D. rerio CPAP^937–1124 with D. rerio STIL^408–428, protein/peptide mixture; 100 mM Tris pH 8.5, 200 mM CaAcetate, 17% PEG-2000 MME, 19.5°C; conditions: both partners purified
[3] = tested on: sas-4(RNAi) C. elegans embryos; test: Monopolar spindle assay after sas-4(RNAi); assay type: in vivo; conditions: second division
Description: (§1) C. elegans strains carrying single-copy sas-4 transgenes were generated using MosSCI ([Frøkjær-Jensen et al., 2008]). To render the transgenes RNAi-resistant, a 500 bp region at the 5′ end of the sas-4 genomic sequence was re-encoded. The engineered sas-4 sequence was cloned into pCFJ151 with the promoter and 3′ UTR from sas-6, as well as a C-terminal GFP tag. pCFJ151 contains homology arms that direct transposase-mediated insertion of intervening sequence into the ttTi5606 Mos1 site on Chromosome II. Transgene integration was confirmed by PCR of regions spanning each side of the insertion. The genotypes of the strains used are: unc-119(ed9)III; ltSi85[pOD1550; Psas-6::SAS-4 reencoded::GFP; cb-unc-119(+)]II for WT SAS-4; and unc-119(ed9)III; ltSi177[pOD1551; Psas-6::SAS-4(1-556) reencoded::GFP; cb-unc-119(+)]II for SAS-4^ΔTCP.
(§2) Double-stranded sas-4 RNA was generated as described ([Oegema et al., 2001]) using DNA templates prepared by PCR. For experiments to quantify monopolar spindle formation, L4 hermaphrodites were injected with dsRNA and incubated at 20°C for 40 hr prior to dissection for imaging. For lethality assays, worms were maintained at 20°C. L4 hermaphrodites were injected with dsRNA and singled 24 hr post-injection. Adult worms were removed from the plates 48 hr post-injection, and hatched larvae and unhatched embryos were counted 24 hr later. […]

[4] = tested on: centrioles in sas-4(RNAi) C. elegans embryos; test: Localisation of SAS-4::GFP in absence of endogenous protein; assay type: in vivo
Description: as §1, §2

[5] = tested on: sas-4(RNAi) C. elegans embryos; test: Embryonic viability after sas-4(RNAi); assay type: in vivo
Description: as §1
Double-stranded sas-4 RNA was generated as described ([Oegema et al., 2001]) using DNA templates prepared by PCR. For experiments to quantify monopolar spindle formation, L4 hermaphrodites were injected with dsRNA and incubated at 20°C for 40 hr prior to dissection for imaging. For lethality assays, worms were maintained at 20°C. L4 hermaphrodites were injected with dsRNA and singled 24 hr post-injection. Adult worms were removed from the plates 48 hr post-injection, and hatched larvae and unhatched embryos were counted 24 hr later.

[6] = target: T2, Drosophila melanogaster DSas-4 (dCPAP) TCP domain, residues 700–901 (Drosophila melanogaster, UniProt Q9VI72 700-901); test: crystal structure; D. melanogaster dSTIL^1–47 fused to the N-terminus of dCPAP^700–901 on one chain; sitting drop, Morpheus screen; conditions: both partners purified
T2 construct: source: E. coli B834 (DE3), purified (NiNTA, proteolytic tag cleavage, size exclusion), as a fusion with dSTIL^1–47
T2 sequence (looked up): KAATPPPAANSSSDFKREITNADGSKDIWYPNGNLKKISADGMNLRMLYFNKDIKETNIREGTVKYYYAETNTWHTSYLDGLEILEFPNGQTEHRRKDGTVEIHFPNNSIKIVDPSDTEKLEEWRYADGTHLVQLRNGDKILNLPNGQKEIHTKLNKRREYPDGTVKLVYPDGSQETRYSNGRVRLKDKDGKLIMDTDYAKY

[7] = SEC-MALS / dynamic light scattering of CPAP TCP domain; assay type: physicochemical

B1: Danio rerio STIL^411–428 (peptide)
chain: GEDEDLSPRPSPNPHPVSQENLYFQ
notes: remnant of the cloning and protease cleavage sites at the N-terminus; remnant of the cloning and protease cleavage sites at the C-terminus; expression and purification are told for STIL^404–448; the same paragraph gives the extra residues of this construct; also called N-terminal region of CR2 peptide; source: E. coli C41 BL21 (DE3), purified (NiNTA, proteolytic cleavage of the His-lipoyl …)
For B1, the Kd [1] was 4 µM, the dH [1] was -11.3 kcal/mol and the “stoichiometry N” value [1] was 0.98.

B2: Danio rerio STIL^408–428 (peptide)
chain: GSGVEDEDLSPRPSPNPHPVSQENLYFQ
notes: remnant of the cloning and protease cleavage sites at the N-terminus; remnant of the cloning and protease cleavage sites at the C-terminus; used for crystallisation only; also called STIL peptide; source: E. coli C41 BL21 (DE3), purified (NiNTA, proteolytic cleavage of the His-lipoyl domains, ion exchange); not shown: His-tagged lipoyl domain (Bacillus stearothermophilus dihydrolipoamide …)
B2: binds [2].

B3: Danio rerio STIL^429–448 (peptide)
chain: GQTKRVHPLVPELSMVLDGSFEFGENLYFQ
notes: remnant of the cloning and protease cleavage sites at the N-terminus; STIL, Danio rerio, residues 429-448; remnant of the cloning and protease cleavage sites at the C-terminus; expression and purification are told for STIL^404–448; also called C-terminal region of CR2 peptide; source: E. coli C41 BL21 (DE3), purified (NiNTA, proteolytic cleavage of the His-lipoyl domains, ion exchange); not …
In the case of B3, the Kd [1] is reported as 540 µM, the dH [1] is reported as -6.3 kcal/mol and the “stoichiometry N” value [1] is reported as 0.97.

B4: SAS-4^WT::GFP: C. elegans WT SAS-4 (aa 1–808) GFP fusion, RNAi-resistant transgene (protein, UniProt P34402 1-808, looked up)
chain: MASDENIGADGEQKPSRPFLRKGQGTARFRMPRNNKTSAGAPPTSELSSASSPSINVPRFSLSNALPNSARTVDSGISNEDETRPPTTASLPMDQPSLSSSPENRLNPAPSVAEEHGHSGQHAEEEEDNDTDEVSAMPSFVPDEPSTLVNSDHELSDDALKYKNAAAEFKAFERRMDSMRSASTITTSLATPSSCAPSNSSEPPTRSTPIMNDLGVGPNNHNWPSSMQELSGISLETPQARPLGSNRINQLVRSEAQTGISLLQHHERPTVTAPLRRNDMMNSSRQNPQNGNVQDENRPEHVYDQPIHVPGSSLDRQKLEIEIRRHRNLNIQLRDTIAHLDYAEESVHTTKRQLEEKISEVNNFKKELIEEFKKCKKGVEEEFEKKFEKIKEDYDELYEKLKRDQRDLERDQKILKKGTGERNKEFTETIATLRDKLRASETKNAQYRQDIRVRDEKLKKKDEEIEKLQKDGNRLKSTLQTLEKRVKQLRTEKERDDKEKEMFAKVAMNRKTSNPVPPVLNQSVPISITSNGPSRHPSSSSLTTFRKPSTSNRERGVSWADEPNEQSLEAVPQEFLMMPVKEMPGKFGKCTIYRDSLGETSKVTDTIANGLLFEYSNGDLRWVNRQNAVNIYISAVDKTVRIDLPTYNISIIHTFQRQVEVLRPGNNITLISIKRREVRTDLIYQNGMYKTEIFNRDGRYVTKDFSNQEVSRKYNPGTHTYRDNQCRYVLVTDYNDFELVEPEFRLRWYQGDPTGLNNQYILKIIGRPECSEKTLRLEVNLSTCEGTLETAEMIGDKRRKTTLFQWKK
modifications: full-length GFP fusion
notes: C. elegans WT SAS-4 (aa 1–808) GFP fusion, RNAi-resistant transgene
For B4, the “rescue of monopolar spindle phenotype” value [3] was “fully rescued”, the centriole targeting [4] was “targeted to centrioles” and the “rescue of embryonic viability” value [5] was “fully rescued”.

B5: SAS-4^ΔTCP::GFP: C. elegans SAS-4 (aa 1–556) with TCP domain (aa 557–808) deleted, GFP fusion (protein, UniProt P34402 1-556, looked up, fragment)
chain: MASDENIGADGEQKPSRPFLRKGQGTARFRMPRNNKTSAGAPPTSELSSASSPSINVPRFSLSNALPNSARTVDSGISNEDETRPPTTASLPMDQPSLSSSPENRLNPAPSVAEEHGHSGQHAEEEEDNDTDEVSAMPSFVPDEPSTLVNSDHELSDDALKYKNAAAEFKAFERRMDSMRSASTITTSLATPSSCAPSNSSEPPTRSTPIMNDLGVGPNNHNWPSSMQELSGISLETPQARPLGSNRINQLVRSEAQTGISLLQHHERPTVTAPLRRNDMMNSSRQNPQNGNVQDENRPEHVYDQPIHVPGSSLDRQKLEIEIRRHRNLNIQLRDTIAHLDYAEESVHTTKRQLEEKISEVNNFKKELIEEFKKCKKGVEEEFEKKFEKIKEDYDELYEKLKRDQRDLERDQKILKKGTGERNKEFTETIATLRDKLRASETKNAQYRQDIRVRDEKLKKKDEEIEKLQKDGNRLKSTLQTLEKRVKQLRTEKERDDKEKEMFAKVAMNRKTSNPVPPVLNQSVPISITSNGPSRHPSSSSLTTFRKPSTSNRERG
modifications: GFP fusion
notes: C. elegans SAS-4 (aa 1–556) with TCP domain (aa 557–808) deleted, GFP fusion
With B5 the “rescue of monopolar spindle phenotype” value [3] was “not by the ΔTCP transgene”, the centriole targeting [4] was “did not, and instead exhibited a diffuse accumulation in the pericentriolar material” and the “rescue of embryonic viability” value [5] was “not by the ΔTCP transgene”.

B6: Drosophila melanogaster Ana2 (dSTIL) residues 1–47 (domain or fragment, UniProt Q9XZ31 1-47, looked up)
chain: MFVPETEDMLPRLAPRPSAAVPMGHTNEIIGPTVPEVSILFGQPPQD
notes: Ana2 (dSTIL), Drosophila melanogaster, residues 1-47, the region equivalent to CR2; codon-optimised gene; no linker or residues left by tag cleavage are told; also called dSTIL^1–47; dSTIL peptide; not shown: His tag, N-terminal, cleaved
B6: binds [6].

B7: CPAP^937–1124: TCP domain of Danio rerio CPAP, residues 937–1124, recombinant, GPHM at N-terminus (protein)
chain: GPHMEEIMQSDSKIEKMLPDGGRLVVFPNGTRKELSADGQTVKVMFFNGDVKHTMPDQRVIYYYAEAQTTHITYPDGMEVLQFPNNQTEKHFPDGRKEITFPDQTVKTLHPDGREESVLTDGTIIQLNPDGSKVIQFNTGQREIHTADFKRREYPDGTVKTVYSDGRQETQYPTGRVRLKDPQGKVIMDTKA
modifications: left off: His tag, N-terminal, cleaved
notes: TCP domain of Danio rerio CPAP, residues 937–1124, recombinant, GPHM at N-terminus
With B7 the “oligomeric state in solution” value ([7]; SAXS and SEC-MALS) was “predominantly monomeric in solution”, the “molar mass (averaged across central 50% of peak)” value ([7]; SEC-MALS, injected at approximately 460 μM, 25 mM bis Tris pH 7.2, 100 mM NaCl, theoretical monomer 22 kDa) was 23 kDa and the “Rh (hydrodynamic radius)” value ([7]; dynamic light scattering with SEC, intermediate concentration, 25 mM bis Tris pH 7.2, 100 mM NaCl) was 2.9 ± 0.15 nm.
